Consider five sequences from the supplement of paper PMC5998384.

Data set [1] concerns HeLa Kyoto. The experiment in a line: thermal stability score vs G1/S (z-score of summed log2 fold changes over temperatures); higher = more thermally stable than in G1/S.
The test system of data set [2] is HeLa Kyoto. The data set can be described thus: solubility in G1/S (NP-40 vs SDS abundance) (log2 ratio); higher = more soluble. The conditions noted are these: cell cycle stage: G1/S.
Data set [3] relates to HeLa Kyoto. The data set can be described thus: melting temperature (median over replicates), in situ; higher = more thermally stable.
Data set [4] concerns HeLa Kyoto. The data set can be described thus: solubility change mitosis vs G1/S (difference of NP-40 vs SDS log2 ratios) (log2 ratio difference); higher = more soluble in mitosis.
Where [5] appears, read: cell cycle stage: early G1 (4.5 h after nocodazole release).
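Throughout, for melting temperature (median over replicates), in situ: HeLa Kyoto cells synchronized by double thymidine or nocodazole block, proteins quantified by TMT10plex mass spectrometry, three independent biological replicates.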
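Throughout, for solubility change mitosis vs G1/S (difference of NP-40 vs SDS log2 ratios): synchronized HeLa Kyoto cells (double thymidine block for G1/S, nocodazole release for mitosis), protein amounts in NP-40 versus SDS lysates quantified by mass spectrometry, three biological replicates.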
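Throughout, for solubility in G1/S (NP-40 vs SDS abundance): HeLa Kyoto cells arrested at G1/S by double thymidine block, proteins quantified by TMT10plex mass spectrometry in mild NP-40 versus SDS extracts, three biological replicates.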
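Throughout, for thermal stability score vs G1/S (z-score of summed log2 fold changes over temperatures): synchronized HeLa Kyoto cells, proteins quantified by TMT10plex mass spectrometry, three biological replicates, mitosis taken 0.5 h after nocodazole release, G1/S directly after double thymidine block.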

As for “MGRRRAPELYRAPFPLYALQVDPSTGLLIAAGGGGAAKTGIKNGVHFLQLELINGRLSASLLHSHDTETRATMNLALAGDILAAGQDAHCQLLRFQAHQQQGNKAEKAGSKEQGPRQRKGAAPAEKKCGAETQHEGLELRVENLQAVQTDFSSDPLQKVVCFNHDNTLLATGGTDGYVRVWKVPSLEKVLEFKAHEGEIEDLALGPDGKLVTVGRDLKASVWQKDQLVTQLHWQENGPTFSSTPYRYQACRFGQVPDQPAGLRLFTVQIPHKRLRQPPPCYLTAWDGSNFLPLRTKSCGHEVVSCLDVSESGTFLGLGTVTGSVAIYIAFSLQCLYYVREAHGIVVTDVAFLPEKGRGPELLGSHETALFSVAVDSRCQLHLLPSRRSVPVWLLLLLCVGLIIVTILLLQSAFPGFL [PREB]”, the results for the thermal stability score in the data set on HeLa Kyoto [1] (setting [5]) and with HeLa Kyoto [1] (cell cycle stage: mitosis) were -0.808 and -1.93, respectively. In addition, in the data set with HeLa Kyoto [2], the “solubility in G1/S (log2)” value was -0.0601. In addition, the melting temperature was found to be 53.8 °C in the data set on HeLa Kyoto [3] (cell cycle stage: G1/S) and 54.1 °C with HeLa Kyoto [3] (cell cycle stage: mitosis). Besides, in the data set on HeLa Kyoto [4], the “solubility change mitosis (log2)” value is -0.103.

As to “MGRRSRGRRLQQQQRPEDAEDGAEGGGKRGEAGWEGGYPEIVKENKLFEHYYQELKIVPEGEWGQFMDALREPLPATLRITGYKSHAKEILHCLKNKYFKELEDLEVDGQKVEVPQPLSWYPEELAWHTNLSRKILRKSPHLEKFHQFLVSETESGNISRQEAVSMIPPLLLNVRPHHKILDMCAAPGSKTTQLIEMLHADMNVPFPEGFVIANDVDNKRCYLLVHQAKRLSSPCIMVVNHDASSIPRLQIDVDGRKEILFYDRILCDVPCSGDGTMRKNIDVWKKWTTLNSLQLHGLQLRIATRGAEQLAEGGRMVYSTCSLNPIEDEAVIASLLEKSEGALELADVSNELPGLKWMPGITQWKVMTKDGQWFTDWDAVPHSRHTQIRPTMFPPKDPEKLQAMHLERCLRILPHHQNTGGFFVAVLVKKSSMPWNKRQPKLQGKSAETRESTQLSPADLTEGKPTDPSKLESPSFTGTGDTEIAHATEDLENNGSKKDGVCGPPPSKKMKLFGFKEDPFVFIPEDDPLFPPIEKFYALDPSFPRMNLLTRTTEGKKRQLYMVSKELRNVLLNNSEKMKVINTGIKVWCRNNSGEEFDCAFRLAQEGIYTLYPFINSRIITVSMEDVKILLTQENPFFRKLSSETYSQAKDLAKGSIVLKYEPDSANPDALQCPIVLCGWRGKASIRTFVPKNERLHYLRMMGLEVLGEKKKEGVILTNESAASTGQPDNDVTEGQRAGEPNSPDAEEANSPDVTAGCDPAGVHPPR [NSUN2]”, the thermal stability score in the data set with HeLa Kyoto [1] (setting [5]) stood at 5.62; in the data set with HeLa Kyoto [1] (cell cycle stage: mitosis) it was 11.8. Further, the “solubility in G1/S (log2)” value in the data set on HeLa Kyoto [2] is 0.0447. The melting temperature was 46.6 °C with HeLa Kyoto [3] (cell cycle stage: G1/S) and 49.2 °C in the data set on HeLa Kyoto [3] (cell cycle stage: mitosis). Also, the “solubility change mitosis (log2)” value with HeLa Kyoto [4] is -0.00496.

As for “MGRSRSRSSSRSKHTKSSKHNKKRSRSRSRSRDKERVRKRSKSRESKRNRRRESRSRSRSTNTAVSRRERDRERASSPPDRIDIFGRTVSKRSSLDEKQKREEEEKKAEFERQRKIRQQEIEEKLIEEETARRVEELVAKRVEEELEKRKDEIEREVLRRVEEAKRIMEKQLLEELERQRQAELAAQKAREEEERAKREELERILEENNRKIAEAQAKLAEEQLRIVEEQRKIHEERMKLEQERQRQQKEEQKIILGKGKSRPKLSFSLKTQD [ARGLU1]”, the thermal stability score in the data set on HeLa Kyoto [1] (setting [5]) was -5.79; in the data set on HeLa Kyoto [1] (cell cycle stage: mitosis), -4.86. Also, in the data set with HeLa Kyoto [2], the “solubility in G1/S (log2)” value was -1.03. Moreover, the figures for the melting temperature in the data set on HeLa Kyoto [3] (cell cycle stage: G1/S) and with HeLa Kyoto [3] (cell cycle stage: mitosis) were 51 °C and 50.4 °C, respectively. Moreover, the “solubility change mitosis (log2)” value in the data set with HeLa Kyoto [4] is 0.866.

For the sequence “MGRVVAELVSSLLGLWLLLCSCGCPEGAELRAPPDKIAIIGAGIGGTSAAYYLRQKFGKDVKIDLFEREEVGGRLATMMVQGQEYEAGGSVIHPLNLHMKRFVKDLGLSAVQASGGLLGIYNGETLVFEESNWFIINVIKLVWRYGFQSLRMHMWVEDVLDKFMRIYRYQSHDYAFSSVEKLLHALGGDDFLGMLNRTLLETLQKAGFSEKFLNEMIAPVMRVNYGQSTDINAFVGAVSLSCSDSGLWAVEGGNKLVCSGLLQASKSNLISGSVMYIEEKTKTKYTGNPTKMYEVVYQIGTETRSDFYDIVLVATPLNRKMSNITFLNFDPPIEEFHQYYQHIVTTLVKGELNTSIFSSRPIDKFGLNTVLTTDNSDLFINSIGIVPSVREKEDPEPSTDGTYVWKIFSQETLTKAQILKLFLSYDYAVKKPWLAYPHYKPPEKCPSIILHDRLYYLNGIECAASAMEMSAIAAHNAALLAYHRWNGHTDMIDQDGLYEKLKTEL [PCYOX1]”, the values for the thermal stability score with HeLa Kyoto [1] (setting [5]) and with HeLa Kyoto [1] (cell cycle stage: mitosis) were 1.46 and 0.959, respectively. In addition, in the data set with HeLa Kyoto [2], the “solubility in G1/S (log2)” value is 0.102. Besides, the figures for the melting temperature in the data set with HeLa Kyoto [3] (cell cycle stage: G1/S) and with HeLa Kyoto [3] (cell cycle stage: mitosis) were 56.6 °C and 57.1 °C, respectively. The “solubility change mitosis (log2)” value with HeLa Kyoto [4] was -0.225.

On to “MGSGARFPSGTLRVRWLLLLGLVGPVLGAARPGFQQTSHLSSYEIITPWRLTRERREAPRPYSKQVSYVIQAEGKEHIIHLERNKDLLPEDFVVYTYNKEGTLITDHPNIQNHCHYRGYVEGVHNSSIALSDCFGLRGLLHLENASYGIEPLQNSSHFEHIIYRMDDVYKEPLKCGVSNKDIEKETAKDEEEEPPSMTQLLRRRRAVLPQTRYVELFIVVDKERYDMMGRNQTAVREEMILLANYLDSMYIMLNIRIVLVGLEIWTNGNLINIVGGAGDVLGNFVQWREKFLITRRRHDSAQLVLKKGFGGTAGMAFVGTVCSRSHAGGINVFGQITVETFASIVAHELGHNLGMNHDDGRDCSCGAKSCIMNSGASGSRNFSSCSAEDFEKLTLNKGGNCLLNIPKPDEAYSAPSCGNKLVDAGEECDCGTPKECELDPCCEGSTCKLKSFAECAYGDCCKDCRFLPGGTLCRGKTSECDVPEYCNGSSQFCQPDVFIQNGYPCQNNKAYCYNGMCQYYDAQCQVIFGSKAKAAPKDCFIEVNSKGDRFGNCGFSGNEYKKCATGNALCGKLQCENVQEIPVFGIVPAIIQTPSRGTKCWGVDFQLGSDVPDPGMVNEGTKCGAGKICRNFQCVDASVLNYDCDVQKKCHGHGVCNSNKNCHCENGWAPPNCETKGYGGSVDSGPTYNEMNTALRDGLLVFFFLIVPLIVCAIFIFIKRDQLWRSYFRKKRSQTYESDGKNQANPSRQPGSVPRHVSPVTPPREVPIYANRFAVPTYAAKQPQQFPSRPPPPQPKVSSQGNLIPARPAPAPPLYSSLT [ADAM9]”, for which the thermal stability score with HeLa Kyoto [1] (setting [5]) is -2.54; in the data set with HeLa Kyoto [1] (cell cycle stage: mitosis), -2.91. The “solubility in G1/S (log2)” value in the data set with HeLa Kyoto [2] is -0.486. For the same sequence, the melting temperature worked out at 57.3 °C in the data set with HeLa Kyoto [3] (cell cycle stage: G1/S) and 56.8 °C with HeLa Kyoto [3] (cell cycle stage: mitosis). In the data set with HeLa Kyoto [4], the “solubility change mitosis (log2)” value is -0.00657.
